From article PMC8794255, “Small molecule inhibitor of Igf2bp1 represses Kras and a pro-oncogenic phenotype in cancer cells” (RNA Biology, 2021) come the findings set out here.

The target of data set [1] is Igf2bp1 (human) (UniProt Q9NZI8). Briefly: competition. To be noted: MST/EMSA: 10 mM Tris pH 7.5, 100 mM NaCl, 0.1 mM EDTA, IGEPAL, tRNA, heparin, 0.5-2 mM DTT, room temperature (MST protein in PBST mixed 1:1); FP: 10 mM Tris pH …. A general note: Mobility shift assays separate free from complexed probe on a gel.
Sequence of Igf2bp1 (human) (UniProt Q9NZI8) (Q9NZI8 whole entry): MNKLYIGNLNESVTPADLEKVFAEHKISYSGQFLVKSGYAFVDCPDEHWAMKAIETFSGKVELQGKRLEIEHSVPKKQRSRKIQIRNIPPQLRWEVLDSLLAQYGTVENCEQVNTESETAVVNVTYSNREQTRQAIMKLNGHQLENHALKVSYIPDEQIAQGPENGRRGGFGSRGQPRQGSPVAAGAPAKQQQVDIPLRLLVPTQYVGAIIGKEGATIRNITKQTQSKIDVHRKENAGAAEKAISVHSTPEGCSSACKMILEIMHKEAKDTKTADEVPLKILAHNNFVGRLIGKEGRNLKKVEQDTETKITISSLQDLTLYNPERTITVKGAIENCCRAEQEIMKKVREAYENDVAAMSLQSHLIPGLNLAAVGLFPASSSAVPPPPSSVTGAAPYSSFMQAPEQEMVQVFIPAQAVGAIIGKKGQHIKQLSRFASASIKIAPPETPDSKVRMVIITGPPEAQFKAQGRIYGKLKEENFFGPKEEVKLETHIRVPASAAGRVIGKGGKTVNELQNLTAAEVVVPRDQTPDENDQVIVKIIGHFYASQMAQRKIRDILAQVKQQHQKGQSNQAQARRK
The subject of a further data set is Igf2bp1 KH34 (human). Briefly: MST. The conditions noted are these: MST/EMSA: 10 mM Tris pH 7.5, 100 mM NaCl, 0.1 mM EDTA, IGEPAL, tRNA, heparin, 0.5-2 mM DTT, room temperature (MST protein in PBST mixed 1:1); FP: 10 mM Tris pH ….
Data set [2] deals with Igf2bp1 (human). Nature of the data set: MST. To be noted: MST/EMSA: 10 mM Tris pH 7.5, 100 mM NaCl, 0.1 mM EDTA, IGEPAL, tRNA, heparin, 0.5-2 mM DTT, room temperature (MST protein in PBST mixed 1:1), FP: 10 mM Tris pH ….

Take “GGGUGAGGAGUACAGUGCAAUGAGGGACCAGUACAUGAGGACUGGGGAGGGCUUUCUUUGUGUAUUUGCCAUAAAUAAUACUAAAUCAUUUGAAGAUAUUCACCAUUAUAGAGAACAAAUUAAAAGAGUUAAGGACUCUGAAGAUGUACCUAUGGUCCUAGUAGGAAAUAAAUGUGAUUUGCCUUCUAGAACAGUAGACACAA [Kras 2 RNA]”: in the data set with Igf2bp1 (human) [1], the binding result was “binds more weakly”.
For orientation: Kd means a measure of binding affinity in units of concentration. Low readings indicate higher affinity, high ones lower affinity. Regarding Kras 6 RNA, the Kd with Igf2bp1 KH34 (human) is 200 nM; in the data set on Igf2bp1 (human) [2] (50 uM 7773), 63 nM; in the data set with Igf2bp1 (human) [2] (100 uM 7773), 120 nM; in the data set on Igf2bp1 (human) [2], 20 nM; in the data set on Igf2bp1 (human) [2] (no compound), 56 nM.
